Experimental data taken from patent US20240263191.

Target: KLF15 (hKLF15) (Homo sapiens) (UniProt Q9UIH9)
Assay: cell_activity
Conditions: AAV8-GNAT1-hKLF15 subretinal in pig, 2x10^10 gc, 15 days; 38% repression of protein

Sequence of KLF15 (hKLF15) (Homo sapiens) (Q9UIH9 whole entry): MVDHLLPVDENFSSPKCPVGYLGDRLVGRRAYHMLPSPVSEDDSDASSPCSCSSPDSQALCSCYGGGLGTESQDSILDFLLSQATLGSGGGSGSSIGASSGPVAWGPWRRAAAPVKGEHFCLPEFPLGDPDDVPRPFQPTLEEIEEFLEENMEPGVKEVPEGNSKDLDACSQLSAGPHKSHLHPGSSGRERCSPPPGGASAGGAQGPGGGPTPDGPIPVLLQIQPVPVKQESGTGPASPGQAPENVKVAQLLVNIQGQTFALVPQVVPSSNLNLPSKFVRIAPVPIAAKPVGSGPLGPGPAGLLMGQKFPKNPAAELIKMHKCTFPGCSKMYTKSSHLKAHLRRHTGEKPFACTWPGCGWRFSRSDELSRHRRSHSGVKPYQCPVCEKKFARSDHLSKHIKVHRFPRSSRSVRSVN

endogenous porcine Rho promoter (hRHO-cis highly conserved)
activity (% repression of Rho transcript): 45
